Test results from PMC8219380, “The discriminatory power of the T cell receptor” (eLife, 2021).
Blank lines part the entries; values can stand above or below the molecule they belong to.

How the values were obtained:
M3 muscarinic receptor = experiment: Discrimination power from published data: M3 receptor; details: n 7, ref Sykes 2009
Excerpt: (§1) The broad method was to obtain a measure of ligand potency from each study. […] If not explicitly provided, we estimated ligand potency as PX , which was defined by the concentration of ligand that produced X response. To do this, we drew a horizontal line at X on a provided dose-response graph and estimated the ligand concentration where the data intercepted the horizontal line. The disadvantage with this method is that ligand potency was estimated based on the single representative graph provided in the study.
(§2) Each study often contained or cited a study that contained estimates of KD or koff for the specific TCR/pMHC interactions used in the study. We only included studies where monomeric SPR binding data was available to avoid multimeric binding parameters (e.g. when using tetramers). However, when analysing discrimination by other non-TCR receptors, we included binding data from various methods (e.g. SPR, radio labelled ligands) provided they were monomeric measurements. The use of SPR is important for weak interactions, such as TCR/pMHC, but various methods are available for higher-affinity interactions.
(§3) The plot of potency over KD or k off was fit using linear regression on log-transformed axes. We reported the slope of the fit (i.e. the discrimination power, α), the goodness-of-fit measure ( R^2 ), and the p-value for the null hypothesis that the slope is zero (i.e. α=0 ). […]

IFNAR1 and IFNAR2 = experiment: Discrimination power from published data: type I IFN receptor; details: n 13, ref Thomas C. 2011
Excerpt: as §1, §2, §3

ErbB2 = experiment: Discrimination power from published data: ErbB2 CARs; details: n 4, ref Liu 2015
Excerpt: as §1, §2, §3

c-Kit = experiment: Discrimination power from published data: c-Kit; details: n 4, ref Ho 2017
Excerpt: as §1, §2, §3

IL-13Ra1 = experiment: Discrimination power from published data: IL-13 receptor; details: ref Moraga 2015
Excerpt: as §1, §2
(§4) The plot of potency over KD or k off was fit using linear regression on log-transformed axes. We reported the slope of the fit (i.e. the discrimination power, α), the goodness-of-fit measure ( R^2 ), and the p-value for the null hypothesis that the slope is zero (i.e. α=0 ). We defined significance using the threshold of p=0.05.
Cytokine receptors transduce signals by ligand-induced dimerisation of receptor subunits. We identified five studies that produced ligands with mutations that modified binding to either one or both receptor subunits and either reported potency or provided dose-response curves from which potency can be extracted ([Levin et al., 2012]; [Moraga et al., 2015]; [Thomas et al., 2011a]; [Mendoza et al., 2017]; [Martinez-Fabregas et al., 2019]). […] By measuring cellular responses, such as upregulation of CD86 on monocytes, dose-response curves were generated for each IL-13 variant, allowing us to determine ligand potency. We observed a significant correlation between potency and KD (Figure 6A). We repeated the analysis for each study (Figure 6—source data 1 ID 1–13). In studies that included ligands with mutations to both receptor interfaces, we plotted potency over the product of the dissociation constants to each interface since this serves as an estimate of the overall affinity (i.e. KD1×KD2 ).

CXC chemokine receptor 3 = experiment: Discrimination power from published data: CXCR3; details: ref Heise 2005
Excerpt: as §1, §2, §4
Therefore, ligand affinity may not correlate to functional potency. Instead, we focused on identifying studies that used ligands that were confirmed to bind to the same interface with different affinities. As an example, Sykes et al. used seven agonists to the muscarinic M3 receptor and confirmed they all bound to the same interface using a binding competition assay ([Sykes et al., 2009]). Using titrations of each ligand, they examined the binding of GTPγS to CHO-M3 membrane as a measure of response (Figure 6C, left). […]

gp130 = experiment: Discrimination power from published data: IL-6 receptor; details: ns, ref Martinez-Fabregas 2019
Excerpt: as §1, §2, §3

[1] = test system: IL-2 receptor subunit β (IL-2Rb); experiment: Discrimination power from published data: IL-2 receptor; details: n 4, ref Levin 2012
Excerpt: as §1, §2, §3

Molecule: M3 muscarinic receptor: M3 muscarinic receptor, set of agonists
Power (discrimination power) (M3 muscarinic receptor; ID 19, output Calcium, ns): 0.7717
Power (discrimination power) (M3 muscarinic receptor; ID 20, output GTPyS Binding): 0.5478

Power (discrimination power) (IFNAR1 and IFNAR2; ID 7, output antiviral): 0.7137
Power (discrimination power) (IFNAR1 and IFNAR2; ID 8, output antiproliferation): 1.329
Molecule: IFNAR1/IFNAR2

Molecule: ErB2
Power (discrimination power) (ErbB2; ID 26, output CD107): 1.058
Power (discrimination power) (ErbB2; ID 27, output Proliferation, ns): 0.6409

Molecule: c-Kit: receptor tyrosine kinase activated by SCF
Power (discrimination power) (c-Kit; ID 15, output pERK): 0.834
Power (discrimination power) (c-Kit; ID 16, output pAKT): 0.882

Power (discrimination power) (IL-13Ra1; ID 3, output pSTAT6, n 9): 0.471
Power (discrimination power) (IL-13Ra1; ID 6, output CD205, n 9): 0.421
B1: IL-13Rα1 (protein, UniProt P78552 22-427, looked up)
Interleukin-13 receptor …: GGGGAAPTETQPPVTNLSVSVENLCTVIWTWNPPEGASSNCSLWYFSHFGDKQDKKIAPETRRSIEVPLNERICLQVGSQCSTNESEKPSILVEKCISPPEGDPESAVTELQCIWHNLSYMKCSWLPGRNTSPDTNYTLYYWHRSLEKIHQCENIFREGQYFGCSFDLTKVKDSSFEQHSVQIMVKDNAGKIKPSFNIVPLTSRVKPDPPHIKNLSFHNDDLYVQWENPQNFISRCLFYEVEVNNSQTETHNVFYVQEAKCENPEFERNVENTSCFMVPGVLPDTLNTVRIRVKTNKLCYEDDKLWSNWSQEMSIGKKRNSTLYITMLLIVPVIVAGAIIVLLLYLKRLKIIIFPPIPDPGKIFKEMFGDQNDDTLHWKKYDIYEKQTKEETDSVVLIENLKKASQ

Power (discrimination power) (CXC chemokine receptor 3; ID 22, output Calcium mobilization, n 3): 0.7346
Power (discrimination power) (CXC chemokine receptor 3; ID 23, output GTP gamma S Binding, n 3): 1.056
Power (discrimination power) (CXC chemokine receptor 3; ID 24, output Migrated Cells, n 2, ns, Perfect line): 0.5609
B2: CXC chemokine receptor 3: CXCR3 with chemokine ligands (protein, UniProt P49682 1-368, looked up)
C-X-C chemokine receptor type …: MVLEVSDHQVLNDAEVAALLENFSSSYDYGENESDSCCTSPPCPQDFSLNFDRAFLPALYSLLFLLGLLGNGAVAAVLLSRRTALSSTDTFLLHLAVADTLLVLTLPLWAVDAAVQWVFGSGLCKVAGALFNINFYAGALLLACISFDRYLNIVHATQLYRRGPPARVTLTCLAVWGLCLLFALPDFIFLSAHHDERLNATHCQYNFPQVGRTALRVLQLVAGFLLPLLVMAYCYAHILAVLLVSRGQRRLRAMRLVVVVVVAFALCWTPYHLVVLVDILMDLGALARNCGRESRVDVAKSVTSGLGYMHCCLNPLLYAFVGVKFRERMWMLLLRLGCPNQRGLQRQPSSSRRDSSWSETSEASYSGL

Power (discrimination power) (gp130; ID 12, output pSTAT1, n 3): 0.5438
Power (discrimination power) (gp130; ID 13, output pSTAT3, n 4): 0.5194
B3: gp130 (and IL6R alpha) (protein, UniProt P40189 23-918; P08887 20-468, looked up)
Interleukin-6 receptor … 1: ELLDPCGYISPESPVVQLHSNFTAVCVLKEKCMDYFHVNANYIVWKTNHFTIPKEQYTIINRTASSVTFTDIASLNIQLTCNILTFGQLEQNVYGITIISGLPPEKPKNLSCIVNEGKKMRCEWDGGRETHLETNFTLKSEWATHKFADCKAKRDTPTSCTVDYSTVYFVNIEVWVEAENALGKVTSDHINFDPVYKVKPNPPHNLSVINSEELSSILKLTWTNPSIKSVIILKYNIQYRTKDASTWSQIPPEDTASTRSSFTVQDLKPFTEYVFRIRCMKEDGKGYWSDWSEEASGITYEDRPSKAPSFWYKIDPSHTQGYRTVQLVWKTLPPFEANGKILDYEVTLTRWKSHLQNYTVNATKLTVNLTNDRYLATLTVRNLVGKSDAAVLTIPACDFQATHPVMDLKAFPKDNMLWVEWTTPRESVKKYILEWCVLSDKAPCITDWQQEDGTVHRTYLRGNLAESKCYLITVTPVYADGPGSPESIKAYLKQAPPSKGPTVRTKKVGKNEAVLEWDQLPVDVQNGFIRNYTIFYRTIIGNETAVNVDSSHTEYTLSSLTSDTLYMVRMAAYTDEGGKDGPEFTFTTPKFAQGEIEAIVVPVCLAFLLTTLLGVLFCFNKRDLIKKHIWPNVPDPSKSHIAQWSPHTPPRHNFNSKDQMYSDGNFTDVSVVEIEANDKKPFPEDLKSLDLFKKEKINTEGHSSGIGGSSCMSSSRPSISSSDENESSQNTSSTVQYSTVVHSGYRHQVPSVQVFSRSESTQPLLDSEERPEDLQLVDHVDGGDGILPRQQYFKQNCSQHESSPDISHFERSKQVSSVNEEDFVRLKQQISDHISQSCGSGQMKMFQEVSAADAFGPGTEGQVERFETVGMEAATDEGMPKSYLPQTVRQGGYMPQ
Interleukin-6 receptor … 2: LAPRRCPAQEVARGVLTSLPGDSVTLTCPGVEPEDNATVHWVLRKPAAGSHPSRWAGMGRRLLLRSVQLHDSGNYSCYRAGRPAGTVHLLVDVPPEEPQLSCFRKSPLSNVVCEWGPRSTPSLTTKAVLLVRKFQNSPAEDFQEPCQYSQESQKFSCQLAVPEGDSSFYIVSMCVASSVGSKFSKTQTFQGCGILQPDPPANITVTAVARNPRWLSVTWQDPHSWNSSFYRLRFELRYRAERSKTFTTWMVKDLQHHCVIHDAWSGLRHVVQLRAQEEFGQGEWSEWSPEAMGTPWTESRSPPAENEVSTPMQALTTNKDDDNILFRDSANATSLPVQDSSSVPLPTFLVAGGSLAFGTLLCIAIVLRFKKTWKLRALKEGKTSMHPPYSLGQLVPERPRPTPVLVPLISPPVSPSSLGSDNTSSHNRPDARDPRSPYDISNTDYFFPR

Power (discrimination power) ([1]; ID 1, output CD25 – pSTAT5 (NK cells)): 0.546
Power (discrimination power) ([1]; ID 2, output CD25 – %pSTAT5 (T cells)): 0.743
B4: IL-2R beta (protein, UniProt P14784 27-551, looked up)
Interleukin-2 receptor …: AVNGTSQFTCFYNSRANISCVWSQDGALQDTSCQVHAWPDRRRWNQTCELLPVSQASWACNLILGAPDSQKLTTVDIVTLRVLCREGVRWRVMAIQDFKPFENLRLMAPISLQVVHVETHRCNISWEISQASHYFERHLEFEARTLSPGHTWEEAPLLTLKQKQEWICLETLTPDTQYEFQVRVKPLQGEFTTWSPWSQPLAFRTKPAALGKDTIPWLGHLLVGLSGAFGFIILVYLLINCRNTGPWLKKVLKCNTPDPSKFFSQLSSEHGGDVQKWLSSPFPSSSFSPGGLAPEISPLEVLERDKVTQLLLQQDKVPEPASLSSNHSLTSCFTNQGYFFFHLPDALEIEACQVYFTYDPYSEEDPDEGVAGAPTGSSPQPLQPLSGEDDAYCTFPSRDDLLLFSPSLLGGPSPPSTAPGGSGAGEERMPPSLQERVPRDWDPQPLGPPTPGVPDLVDFQPPPELVLREAGEEVPDAGPREGVSFPWSRPPGQGEFRALNARLPLNTDAYLSLQELQGQDPTHLV

Power (discrimination power) (IL-13Ra1; ID 4, output Proliferation, n 9, ns): 0.394
Power (discrimination power) (IL-13Ra1; ID 5, output CD86): 0.442
B5: IL-13Rα2 (protein, UniProt Q14627 27-380, looked up)
Interleukin-13 receptor …: DTEIKVNPPQDFEIVDPGYLGYLYLQWQPPLSLDHFKECTVEYELKYRNIGSETWKTIITKNLHYKDGFDLNKGIEAKIHTLLPWQCTNGSEVQSSWAETTYWISPQGIPETKVQDMDCVYYNWQYLLCSWKPGIGVLLDTNYNLFYWYEGLDHALQCVDYIKADGQNIGCRFPYLEASDYKDFYICVNGSSENKPIRSSYFTFQLQNIVKPLPPVYLTFTRESSCEIKLKWSIPLGPIPARCFDYEIEIREDDTTLVTATVENETYTLKTTNETRQLCFVVRSKVNIYCSDDGIWSEWSDKQCWEGEDLSKKTLLRFWLPFGFILILVIFVTGLLLRKPNTYPKMIPEFFCDT
